Results taken from paper PMC6374115.

Experiment: live-cell confocal, cytosolic distribution
Conditions: glycan lost; control: WT YFP-cryAB

B1: cryAB (crystallin alphaB / HspB5): T170A (protein)
parent chain: MDIAIHHPWIRRPFFPFHSPSRLFDQFFGEHLLESDLFPTSTSLSPFYLRPPSFLRAPSWFDTGLSEMRLEKDRFSVNLDVKHFSPEELKVKVLGDVIEVHGKHEERQDEHGFISREFHRKYRIPADVDPLTITSSLSSDGVLTVNGPRKQVSGPERTIPITREEKPAVTAAPKK
For B1, the localisation_or_trafficking was “changes”.
